Where two headings read alike, the source gives them in different places.
Legend:
[1] = physchem; assay type: physicochemical; settings: buffer or solvent
Method: (§1) [^68Ga]Sulfo-Cy7-FSC-MG and [^68Ga]Sulfo-Cy7-FSC-RGD (6 MBq) were diluted with phosphate buffered saline to a concentration of 1 μM. Subsequently 50 μL of this solution was added to six Eppendorf tubes containing 450 μL PBS and 500 μL octanol. The mixture was vortexed (1400 rpm) at RT for 15 min using a MS 3 basic vortexer (IKA, Staufen, Germany) followed by centrifugation for 2 min at 4500 rpm. Aliquots of 100 μL of both phases were transferred to plastic vials, measured in the γ-counter and logD values were calculated. For stability testing, radiolabeled tracers were diluted with 450 μL fresh human serum and 450 μL PBS as control to a concentration of 2 μM followed by incubation at 37 °C. After 1, 2, and 4 h (n = 3) 50 μL aliquots were precipitated with acetonitrile (1:1) and centrifuged for 2 min at 14 × 10^3 rpm. The supernatant was analyzed by radio-RP-HPLC to evaluate for decomposition and corresponding chromatograms are shown in Supporting Information. For protein binding measurement aliquots were analyzed by size exclusion chromatography using MicroSpin G-50 Columns (Sephadex G-50, GE Healthcare, Vienna, Austria) in triplicates. First, the columns were centrifuged at 750 rcf for 1 min to remove the storage buffer. After adding 25 μL of incubation solution columns were centrifuged again for 2 min with 2000 rcf. Column and eluate were measured in the γ-counter and percentages of nonprotein bound radiolabeled peptide (column) and protein bound radiotracer (eluate) were calculated.

[2] = test system: mice bearing U-87MG tumor xenografts; assay: Static micro-PET/CT imaging, U-87MG xenografts; assay type: in vivo, mouse; settings: static PET, 30 and 90 min p.i.
Method: All animal experiments were conducted in accordance with regulations and guidelines of the Czech Animal Protection Act (No. 246/1992), and with the approval of the Czech Ministry of Education, Youth, and Sports (MSMT-22421/2013–12), and the institutional Animal Welfare Committee of the Faculty of Medicine and Dentistry of Palacky University in Olomouc. The studies were performed using female 8–10-week-old athymic BALB/c nude mice (Envigo, Horst, The Netherlands). […]
Tumor xenografts were established near the front shoulder of mice by subcutaneous injection of 5 × 10^6 cells (U-87 MG) or 2 × 10^6 cells (A431-CCK2R) and the same amount of A431-mock cells as a control in 200 μL appropriate medium and Matrigel (1:1). […] Tumors, blood, muscle tissue, and organs were extracted, weighed, and activity uptake of the samples was measured in the gamma counter. Results were expressed as percentage of injected dose per gram tissue (% ID/g). […] After reconstruction, acquired data was viewed and analyzed with PMOD software (PMOD Technologies Ltd., Zurich, Switzerland). […] Near-infrared in vivo fluorescence imaging was performed with an In-Vivo MS FX PRO small animal imaging system (Bruker Biospin Corporation, Woodbridge, CT, USA). […] An appropriate filter set (excitation = 730 nm and emission = 790 nm) was used for acquiring the Sulfo-Cy7-FSC-peptide - fluorescence in vivo. […]

[3] = test system: M21-L (αvβ3 negative) cells; assay: M21-L internalization assay (radioligand); assay type: cell-based, human; settings: for Cell uptake (internalized): M21-L (αvβ3 negative); for unspecific membrane bound activity: M21-L cells
Method: (§2) Integrin αvβ3 positive (M21) and αvβ3 negative (M21-L) cells were diluted with incubation medium, i.e., corresponding growth medium containing 1% glutamine (m/v), 1% BSA (m/v), CaCl2 (1 mM), MgCl2 (1 mM), and MnCl2 (10 mM) to a concentration of 2.0 × 10^6 cells/ml. Aliquots of one milliliter were transferred to Eppendorf tubes and six technical replicates for each cell line were incubated for 1 h at 37 °C. Subsequently 50 μL of the radiolabeled ligand (1.2 nM [^68Ga]Sulfo-Cy7-FSC-RGD in PBS/0.5% BSA, approximately 2 × 10^4 cpm) were added and incubated at 37 °C for further 60 and 120 min, respectively. After incubation the tubes were centrifuged (2 min, 5000 rpm; Eppendorf Centrifuge 5424, Hamburg, Germany) and the supernatant was removed and collected. Hereafter the cells were washed twice with 1 mL ice-cold washing buffer (10 mM TRIS-buffered saline, pH 7.3) and the fractions were combined with the supernatant (wash fraction). To determine the membrane bound tracer amount cells were washed two times with 1 mL acetate buffer (20 mM, pH 4.5, 10 min at 37 °C) and the supernatant was collected. The residual cells were lysed by adding 1 mL of 2 M NaOH twice and collected in plastic vials (internalized fraction). The activity of all collected vials was measured in the γ-counter and compared to standard solution (50 μL radiotracer).

[4] = assay type: physicochemical; settings: pH 7.4
Method: as §1, with “First, the columns were centrifuged at 750 rcf for 1 min to remove the storage buffer. After adding 25 μL of incubation solution columns were centrifuged again for 2 min with 2000 rcf.” left out

[5] = test system: U-87MG (αvβ3 positive) xenograft bearing mice; settings: mouse, in vivo, 1.5 h
Method: (§3) All animal experiments were conducted in accordance with regulations and guidelines of the Czech Animal Protection Act (No. 246/1992), and with the approval of the Czech Ministry of Education, Youth, and Sports (MSMT-22421/2013–12), and the institutional Animal Welfare Committee of the Faculty of Medicine and Dentistry of Palacky University in Olomouc. The studies were performed using female 8–10-week-old athymic BALB/c nude mice (Envigo, Horst, The Netherlands). The number of animals was reduced as much as possible (n = 3 per group and time point for all experiments) and retro-orbital (r.o.) tracer injection as well as small animal imaging was carried out under 2% isoflurane anesthesia (FORANE, Abbott Laboratories, Abbott Park, IL, USA) to minimize animal suffering.
(§4) Tumor xenografts were established near the front shoulder of mice by subcutaneous injection of 5 × 10^6 cells (U-87 MG) or 2 × 10^6 cells (A431-CCK2R) and the same amount of A431-mock cells as a control in 200 μL appropriate medium and Matrigel (1:1). The tumors were allowed to grow until they had reached a volume of 0.2 to 0.5 cm^3. To evaluate ex vivo biodistribution mice were injected with 1–2 MBq (0.05–0.14 nmol) of radiotracer per mouse and mice were sacrificed by cervical dislocation after 30 and 90 min for [^68Ga]Sulfo-Cy7-FSC-RGD and after 1 and 2 h in the case of [^68Ga]Sulfo-Cy7-FSC-MG. Tumors, blood, muscle tissue, and organs were extracted, weighed, and activity uptake of the samples was measured in the gamma counter. Results were expressed as percentage of injected dose per gram tissue (% ID/g). In vivo PET and CT images were acquired with an Albira PET/SPECT/CT small animal imaging system (Bruker Biospin Corporation, Wood-bridge, CT, USA). Xenograft bearing mice were injected with radiolabeled peptides in a dose of ~5 MBq corresponding to 1–2 μg (0.25–0.58 nmol) of peptide per mouse. Anaesthetized animals were positioned prone head first in the Albira system before the start of imaging. Static PET/CT imaging was carried out 30 and 90 min p.i. for [^68Ga]Sulfo-Cy7-FSC-RGD. Animals injected with [^68Ga]Sulfo-Cy7-FSC-MG were imaged 1 and 2 h p.i. A 10 min PET scan (axial FOV 148 mm) was performed, followed by a CT scan (axial FOV 65 mm, 45 kVp, 400 μA, at 400 projections). Scans were reconstructed with the Albira software (Bruker Biospin Corporation, Woodbridge, CT, USA) using the maximum likelihood expectation maximization (MLEM) and filtered backprojection (FBP) algorithms. After reconstruction, acquired data was viewed and analyzed with PMOD software (PMOD Technologies Ltd., Zurich, Switzerland). 3D images were obtained using VolView software (Kitware, Clifton Park, NY, USA). Near-infrared in vivo fluorescence imaging was performed with an In-Vivo MS FX PRO small animal imaging system (Bruker Biospin Corporation, Woodbridge, CT, USA). Sulfo-Cy7-FSC-MG and Sulfo-Cy7-FSC-RGD were injected in a dose of 0.25–0.58 nmol per mouse and after supine head first positioning, imaging was conducted in various time intervals up to 72 h p.i. An appropriate filter set (excitation = 730 nm and emission = 790 nm) was used for acquiring the Sulfo-Cy7-FSC-peptide - fluorescence in vivo. Identical illumination settings (acquisition time = 15 s, filters = 730/790 nm, f-stop = 2.8, field of view = 100 mm, and binning = 4 × 4) were used for acquiring all images, and fluorescence emission was normalized to photons/s/mm^2. Images were acquired and analyzed using Bruker MI SE software (Bruker Biospin Corporation, Woodbridge, CT, USA).

[6] = mouse, in vivo
Method: as §3, §4

[7] = test system: M21 (αvβ3 positive) cells; assay: M21 internalization assay (radioligand); assay type: cell-based, human; settings: for Cell uptake (internalized): M21 (αvβ3 positive); for membrane bound amount of activity: M21 cells
Method: as §2

[8] = in vitro; assay type: in vitro ADME, human
Method: as §1, with “First, the columns were centrifuged at 750 rcf for 1 min to remove the storage buffer. After adding 25 μL of incubation solution columns were centrifuged again for 2 min with 2000 rcf.” left out

[9] = 87 mg, accumulation in tumor tissue

Question: Which remaining at 1 h, 2 μM [1] does the source give for C/C1=C/C(=O)N(O)CCC[C@H](NC(=O)CCN2C(=O)CC(SCCOCCOCCOCCOCCC(=O)NCCCC[C@@H]3NC(=O)[C@@H](Cc4ccccc4)NC(=O)[C@H](CC(=O)O)NC(=O)CNC(=O)[C@H](CCCNC(=N)N)NC3=O)C2=O)C(=O)OCC/C(C)=C\C(=O)N(O)CCC[C@H](NC(=O)CCN2C(=O)CC(SCCOCCOCCOCCOCCC(=O)NCCCC[C@@H]3NC(=O)[C@@H](Cc4ccccc4)NC(=O)[C@H](CC(=O)O)NC(=O)CNC(=O)[C@H](CCCNC(=N)N)NC3=O)C2=O)C(=O)OCC/C(C)=C\C(=O)N(O)CCC[C@H](NC(=O)CCCCC[N+]2=C(C=CC3=CC(=CC=C4N(C)c5ccc(S(=O)(=O)[O-])cc5C4(C)C)CCC3)C(C)(C)c3cc(S(=O)(=O)O)ccc32)C(=O)OCC1 (stereo partly drawn) [[^68Ga]Sulfo-Cy7-FSC-RGD, metal not drawn] here?
Answer: 95.7 ± 0.1%

Question: What about the remaining at 2 h, 2 μM [1] of the same molecule?
Answer: 94.7 ± 0.6%

Question: What about the remaining at 4 h, 2 μM [1] of the same molecule?
Answer: 94.4 ± 0.3%

Question: What about the PET tumor visualization [2] of the same molecule?
Answer: tumor was visualized clearly

Question: And the “Cell uptake (internalized)” value ([3]; 1 h)?
Answer: 0.43 ± 0.25%

Question: What about the “Cell uptake (internalized)” value ([3]; 2 h) of the same molecule?
Answer: 0.71 ± 0.66%

Question: And the “unspecific membrane bound activity” value ([3]; 1 h)?
Answer: 0.29 ± 0.12%

Question: What about the “unspecific membrane bound activity” value ([3]; 2 h) of the same molecule?
Answer: 0.80 ± 0.62%

Question: And the “cell uptake on αvβ3 negative cells relative to αvβ3 positive cells (reduced to)” value ([3]; M21-L vs M21, 1 and 2 h)?
Answer: approximately 1/6

Question: What about the logD [4] of the same molecule?
Answer: -2.3 ± 0.16

Question: What about the kidney retention [5] of the same molecule?
Answer: 57.3 ± 4.6 % ID/g

Question: And the tissue uptake at 0.5 h [6, 9]?
Answer: 10.1 ± 0.8 %ID/g

Question: And the tissue uptake at 1.5 h [6, 9]?
Answer: 7.5 ± 0.8 %ID/g

Question: What about the tissue uptake at 0.5 h ([6]; blood) of the same molecule?
Answer: 4 ± 0.4 %ID/g

Question: What about the tissue uptake at 1.5 h ([6]; blood) of the same molecule?
Answer: 1.3 ± 0.2 %ID/g

Question: What about the tissue uptake at 1.5 h ([6]; kidney retention) of the same molecule?
Answer: 54.8 ± 1.1 %ID/g

Question: And the “Cell uptake (internalized)” value ([7]; 1 h)?
Answer: 2.45 ± 0.36%

Question: And the “Cell uptake (internalized)” value ([7]; 2 h)?
Answer: 4.41 ± 1.17%

Question: What about the “membrane bound amount of activity” value ([7]; 1 h) of the same molecule?
Answer: 1.09 ± 0.23%

Question: And the “membrane bound amount of activity” value ([7]; 2 h)?
Answer: 1.79 ± 0.59%

Question: And the “Binding to serum proteins” value [8]?
Answer: approximately 20%

Reference: PMC5481817, “Developing Targeted Hybrid Imaging Probes by Chelator Scaffolding” (Bioconjugate chemistry, 2017)
